Results as given in patent US20240132587A1 (published 2024).

Tests used:
Assay in all cases: flow cytometry, HEK293 cells
human CLDN18.2 = human CLDN18.2 (human, UniProt P56856 1-261)
rat CLDN18.2 = target: T1, rat CLDN18.2 (rat, UniProt Q5I0E5 1-261)
T1 chain: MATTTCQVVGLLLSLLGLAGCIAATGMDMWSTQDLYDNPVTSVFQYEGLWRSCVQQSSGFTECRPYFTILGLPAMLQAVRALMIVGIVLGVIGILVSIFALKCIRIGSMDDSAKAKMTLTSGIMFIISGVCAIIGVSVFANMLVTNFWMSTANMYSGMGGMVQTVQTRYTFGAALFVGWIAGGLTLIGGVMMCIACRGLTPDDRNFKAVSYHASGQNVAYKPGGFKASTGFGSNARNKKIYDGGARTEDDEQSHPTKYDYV

mouse CLDN18.2 = target: T2, mouse CLDN18.2 (mouse, UniProt P56857 1-264)
T2 chain: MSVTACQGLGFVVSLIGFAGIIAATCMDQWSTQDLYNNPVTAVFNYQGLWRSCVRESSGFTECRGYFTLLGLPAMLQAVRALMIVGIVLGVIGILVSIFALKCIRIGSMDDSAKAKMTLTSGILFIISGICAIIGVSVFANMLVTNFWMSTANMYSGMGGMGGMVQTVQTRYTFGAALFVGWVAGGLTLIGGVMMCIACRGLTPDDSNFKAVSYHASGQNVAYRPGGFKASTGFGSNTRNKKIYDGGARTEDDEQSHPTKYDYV

human CLDN18.2, sequence (P56856 other isoform, or with tags, fused parts or gaps): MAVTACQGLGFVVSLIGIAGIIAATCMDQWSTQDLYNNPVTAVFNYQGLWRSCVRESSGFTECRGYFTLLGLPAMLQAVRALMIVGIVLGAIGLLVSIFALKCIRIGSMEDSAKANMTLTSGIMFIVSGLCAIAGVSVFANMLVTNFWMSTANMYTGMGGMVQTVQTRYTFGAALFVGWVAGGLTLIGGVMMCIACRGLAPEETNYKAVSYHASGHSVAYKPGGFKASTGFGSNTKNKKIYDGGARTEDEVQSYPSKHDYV

B1: 008LYG_D08 IgG1 (antibody, V domains shown)
VH: QVQLVQSGAEVKKPGSSVKVSCKASGGTFSSYAISWVRQAPGQGLEWMGGIIPIFGTANYAQKFQGRVTITADESTSTAYMELSSLRSEDTAVYYCARGYQGMGVFDPWGQGTLVTVSS
VL: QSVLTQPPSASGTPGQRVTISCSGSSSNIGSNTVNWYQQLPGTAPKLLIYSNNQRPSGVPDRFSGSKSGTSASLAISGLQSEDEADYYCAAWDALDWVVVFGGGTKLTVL
An EC50 (human CLDN18.2) of 92.6 nM, an EC50 (rat CLDN18.2) of 99.1 nM and an EC50 (mouse CLDN18.2) of 81.3 nM were found for B1 in this work.

B2: 008M0G_G03 IgG1 (antibody, V domains shown)
VH: QVQLVQSGAEVKKPGSSVKVSCKASGGTFSSYAISWVRQAPGQGLEWMGGIIPIFGTANYAQKFQGRVTITADESTSTAYMELSSLRSEDTAVYYCARGYPRYGVFDYWGQGTLVTVSS
VL: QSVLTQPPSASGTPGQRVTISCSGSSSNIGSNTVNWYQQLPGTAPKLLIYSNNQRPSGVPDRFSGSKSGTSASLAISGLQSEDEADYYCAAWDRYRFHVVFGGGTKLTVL
An EC50 (human CLDN18.2) of 8.55 nM and an EC50 (rat CLDN18.2) of 11.1 nM were found for B2 in this work.

B3: ZP1I16_D05 IgG1 (antibody, V domains shown)
VH: QVQLVQSGAEVKKPGSSVKVSCKASGGTFSSYAISWVRQAPGQGLEWMGGIIPIFGTANYAQKFQGRVTITADESTSTAYMELSSLRSEDTAVYYCARGFIRYGVFDYWGQGTLVTVSS
VL: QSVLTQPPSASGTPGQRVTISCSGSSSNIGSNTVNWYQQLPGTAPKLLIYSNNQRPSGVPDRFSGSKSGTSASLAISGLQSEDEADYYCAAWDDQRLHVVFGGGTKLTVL
An EC50 (human CLDN18.2) of 7.89 nM and an EC50 (rat CLDN18.2) of 11.8 nM were found for B3 in this work.

B4: ZP1I18_B08 IgG1 (antibody, V domains shown)
VH: QVQLVQSGAEVKKPGSSVKVSCKASGGTFSSYAISWVRQAPGQGLEWMGGIIPIFGTANYAQKFQGRVTITADESTSTAYMELSSLRSEDTAVYYCARGFIRYGVFDYWGQGTLVTVSS
VL: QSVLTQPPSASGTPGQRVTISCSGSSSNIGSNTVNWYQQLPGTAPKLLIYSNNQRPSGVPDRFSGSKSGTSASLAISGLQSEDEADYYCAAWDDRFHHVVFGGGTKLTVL
An EC50 (human CLDN18.2) of 13.1 nM and an EC50 (rat CLDN18.2) of 10.5 nM were found for B4 in this work.

B5: 008LY1_D04 IgG1 (antibody, V domains shown)
VH: QVQLVQSGAEVKKPGSSVKVSCKASGGTFSSYAISWVRQAPGQGLEWMGGIIPIFGTANYAQKFQGRVTITADESTSTAYMELSSLRSEDTAVYYCARGYVQYGYFDYWGQGTLVTVSS
VL: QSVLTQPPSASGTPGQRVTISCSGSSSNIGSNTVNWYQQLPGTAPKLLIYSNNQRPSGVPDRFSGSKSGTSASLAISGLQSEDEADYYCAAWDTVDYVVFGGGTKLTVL
An EC50 (human CLDN18.2) of 9.07 nM was found for B5 in this work.
